Results taken from the supplement of paper PMC9112550, “Optimization of the antimicrobial peptide Bac7 by deep mutational scanning” (BMC Biology, 2022).

System: Escherichia coli TOP10
Assay: shrunken log2 fold change of peptide-encoding DNA abundance (4.5 h post-induction vs induction); higher = less antimicrobial activity (less host growth inhibition)
Settings: time post-induction: 4.5 h; library: site-saturation at positions 5, 18, 19, 20
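Also: peptides expressed intracellularly from a pBAD plasmid library in pooled LB shake-flask culture, induced with 0.3% L-arabinose, DNA abundance read by NGS, three biological replicates, DESeq2 with apeglm shrinkage.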

Sequence: RRIRQRPPRLPRPRPRPYGPPRP
- shrunken log2 fold change: -0.415

Sequence: RRIRGRPPRLPRPRPRPCGKPRP
- shrunken log2 fold change: 0.0957

Sequence: RRIRDRPPRLPRPRPRPGWRPRP
- shrunken log2 fold change: 0.832

Sequence: RRIRDRPPRLPRPRPRPWPPPRP
- shrunken log2 fold change: 0.32

Sequence: RRIRYRPPRLPRPRPRPCNRPRP
- shrunken log2 fold change: -0.182

Sequence: RRIRKRPPRLPRPRPRPLMGPRP
- shrunken log2 fold change: 0.818

Sequence: RRIRIRPPRLPRPRPRPNIAPRP
- shrunken log2 fold change: -0.407

Sequence: RRIRWRPPRLPRPRPRPVDNPRP
- shrunken log2 fold change: -0.018

Sequence: RRIRCRPPRLPRPRPRPSYCPRP
- shrunken log2 fold change: -0.342

Sequence: RRIRCRPPRLPRPRPRPGCAPRP
- shrunken log2 fold change: 0.593

Sequence: RRIRSRPPRLPRPRPRPVGFPRP
- shrunken log2 fold change: 0.334

Sequence: RRIRFRPPRLPRPRPRPLQDPRP
- shrunken log2 fold change: 0.118

Sequence: RRIRRRPPRLPRPRPRPPPPPRP
- shrunken log2 fold change: 1.03

Sequence: RRIRNRPPRLPRPRPRPWFCPRP
- shrunken log2 fold change: -0.861

Sequence: RRIRSRPPRLPRPRPRPDSQPRP
- shrunken log2 fold change: -0.267

Sequence: RRIRWRPPRLPRPRPRPDCDPRP
- shrunken log2 fold change: 0.799

Sequence: RRIRLRPPRLPRPRPRPPAGPRP
- shrunken log2 fold change: 0.607

Sequence: RRIRIRPPRLPRPRPRPANLPRP
- shrunken log2 fold change: -0.584

Sequence: RRIRCRPPRLPRPRPRPNFFPRP
- shrunken log2 fold change: 0.0889

Sequence: RRIRTRPPRLPRPRPRPDCHPRP
- shrunken log2 fold change: -0.0374

Sequence: RRIRVRPPRLPRPRPRPMMMPRP
- shrunken log2 fold change: -0.0802

Sequence: RRIRLRPPRLPRPRPRPTPWPRP
- shrunken log2 fold change: 0.381

Sequence: RRIRERPPRLPRPRPRPCKSPRP
- shrunken log2 fold change: -0.0225

Sequence: RRIRRRPPRLPRPRPRPVGLPRP
- shrunken log2 fold change: 0.111

Sequence: RRIRARPPRLPRPRPRPDKAPRP
- shrunken log2 fold change: 0.121

Sequence: RRIRNRPPRLPRPRPRPFENPRP
- shrunken log2 fold change: -0.0135

Sequence: RRIRFRPPRLPRPRPRPVKFPRP
- shrunken log2 fold change: -0.0322

Sequence: RRIRCRPPRLPRPRPRPTQSPRP
- shrunken log2 fold change: 0.565

Sequence: RRIRNRPPRLPRPRPRPKREPRP
- shrunken log2 fold change: 0.0191

Sequence: RRIRWRPPRLPRPRPRPTDCPRP
- shrunken log2 fold change: 0.088

Sequence: RRIRTRPPRLPRPRPRPVPPPRP
- shrunken log2 fold change: 0.396

Sequence: RRIRLRPPRLPRPRPRPLVWPRP
- shrunken log2 fold change: 0.193

Sequence: RRIRDRPPRLPRPRPRPYDSPRP
- shrunken log2 fold change: -0.0305

Sequence: RRIRCRPPRLPRPRPRPTNQPRP
- shrunken log2 fold change: -0.427

Sequence: RRIRRRPPRLPRPRPRPSVLPRP
- shrunken log2 fold change: -0.0526

Sequence: RRIRRRPPRLPRPRPRPCPLPRP
- shrunken log2 fold change: 0.262

Sequence: RRIRIRPPRLPRPRPRPWTGPRP
- shrunken log2 fold change: -0.0257

Sequence: RRIRCRPPRLPRPRPRPTCAPRP
- shrunken log2 fold change: 0.178

Sequence: RRIRKRPPRLPRPRPRPRYPPRP
- shrunken log2 fold change: 0.122

Sequence: RRIRDRPPRLPRPRPRPKLIPRP
- shrunken log2 fold change: 0.088

Sequence: RRIRCRPPRLPRPRPRPYPCPRP
- shrunken log2 fold change: 0.00458

Sequence: RRIRPRPPRLPRPRPRPDNSPRP
- shrunken log2 fold change: -0.228

Sequence: RRIRFRPPRLPRPRPRPTHFPRP
- shrunken log2 fold change: -0.227

Sequence: RRIRARPPRLPRPRPRPMRTPRP
- shrunken log2 fold change: 0.802

Sequence: RRIRCRPPRLPRPRPRPHNVPRP
- shrunken log2 fold change: -0.194

Sequence: RRIRARPPRLPRPRPRPQYWPRP
- shrunken log2 fold change: -0.167

Sequence: RRIRYRPPRLPRPRPRPMIVPRP
- shrunken log2 fold change: -0.209

Sequence: RRIRFRPPRLPRPRPRPLLIPRP
- shrunken log2 fold change: -0.385

Sequence: RRIRRRPPRLPRPRPRPYCSPRP
- shrunken log2 fold change: -0.262

Sequence: RRIRLRPPRLPRPRPRPFCEPRP
- shrunken log2 fold change: -0.157

Sequence: RRIRWRPPRLPRPRPRPKIQPRP
- shrunken log2 fold change: 0.21

Sequence: RRIRRRPPRLPRPRPRPWKDPRP
- shrunken log2 fold change: -0.0442

Sequence: RRIRRRPPRLPRPRPRPGKRPRP
- shrunken log2 fold change: 0.363

Sequence: RRIRLRPPRLPRPRPRPTHIPRP
- shrunken log2 fold change: -0.148

Sequence: RRIRERPPRLPRPRPRPKMMPRP
- shrunken log2 fold change: -0.153

Sequence: RRIRRRPPRLPRPRPRPKIGPRP
- shrunken log2 fold change: 0.396

Sequence: RRIRMRPPRLPRPRPRPDDTPRP
- shrunken log2 fold change: 2.17

Sequence: RRIRTRPPRLPRPRPRPMSPPRP
- shrunken log2 fold change: -0.152

Sequence: RRIRPRPPRLPRPRPRPFYDPRP
- shrunken log2 fold change: -0.138

Sequence: RRIRHRPPRLPRPRPRPAVTPRP
- shrunken log2 fold change: -0.1
